Results taken from patent US20240327848.

Molecular target: human serum albumin (HSA) (Homo sapiens) (UniProt P02768)
Experiment: ELONA
Settings: Nap-dU at all positions marked 6 (n); bead-based ELISA, buffer SB18 (5 mM MgCl2), 37 C

Sequence	Kd [µM]
CTCTCCCAGGTCGAGCTGTACGCGTGTGTGACCTG [AL003]	0.00224
TCCCAGGTCGAGCTGTACGCGTGTGTGACC [AL005]	0.0147
CTCTCCCAGGTCGAGCTGTACGCGTGTGTGACCTGACGTG [AL002]	0.0207
CAGGTCGAGCTGTACGCGTGTGTGACCTG [AL006]	0.019
